Measured values published in US20170210799A1 (Janssen / Centocor, published 2017).

B1: RR1B78 (antibody, human IgG4 S228P, kappa, F234A L235A, V domains shown)
VH: EVQLVQSGAEVKKPGESLKISCKGSGYSFTSYWIGWVRQMPGKGLEWMGIIYPGDSDTRYSPSFQGQVTISADKSISTAYLQWSSLKASDTAMYYCARDVGRWAPGGFLDYWGQGTLVTVSS
VL: not shown
notes: huIgG4 PAA/kappa
B2: RCDB13 (bispecific antibody, human IgG4 S228P, kappa, lambda, F234A L235A)
heavy 1: not shown
light 1: not shown
heavy 2: EVQLVESGGGLVQPGGSLRLSCAASGFTFNTYAMNWVRQAPGKGLEWVARIRSKYNNYATYYAASVKGRFTISRDDSKNSLYLQMNSLKTEDTAVYYCARHGNFGNSYVSWFAYWGQGTLVTVSSASTKGPSVFPLAPCSRSTSESTAALGCLVKDYFPEPVTVSWNSGALTSGVHTFPAVLQSSGLYSLSSVVTVPSSSLGTKTYTCNVDHKPSNTKVDKRVESKYGPPCPPCPAPEAAGGPSVFLFPPKPKDTLMISRTPEVTCVVVDVSQEDPEVQFNWYVDGVEVHNAKTKPREEQFNSTYRVVSVLTVLHQDWLNGKEYKCKVSNKGLPSSIEKTISKAKGQPREPQVYTLPPSQEEMTKNQVSLTCLVKGFYPSDIAVEWESNGQPENNYKTTPPVLDSDGSFLLYSKLTVDKSRWQEGNVFSCSVMHEALHNHYTQKSLSLSLGK
light 2: QTVVTQEPSLTVSPGGTVTLTCRSSTGAVTTSNYANWVQQKPGQAPRGLIGGTNKRAPGTPARFSGSLLGGKAALTLSGVQPEDEAEYYCALWYSNLWVFGGGTKLTVLGQPKAAPSVTLFPPSSEELQANKATLVCLISDFYPGAVTVAWKADSSPVKAGVETTTPSKQSNNKYAASSYLSLTPEQWKSHRSYSCQVTHEGSTVEKTVAPTECS
notes: DuoBody IgG4 PAA, ROR1 arm + CD3B219 arm; also called RR1B78 × CD3B219
B3: RCDB4 (bispecific antibody, human IgG4 S228P, kappa, lambda, F234A L235A)
heavy 1: not shown
light 1: not shown
heavy 2: B2 heavy 2
light 2: B2 light 2
notes: DuoBody IgG4 PAA, ROR1 arm + CD3B219 arm; also called RR1B66 × CD3B219
B4: RCDB14 (bispecific antibody, human IgG4 S228P, kappa, lambda, F234A L235A)
heavy 1: not shown
light 1: not shown
heavy 2: B2 heavy 2
light 2: B2 light 2
notes: DuoBody IgG4 PAA, ROR1 arm + CD3B219 arm; also called RR1B82 × CD3B219
B5: RCDB16 (bispecific antibody, human IgG4 S228P, kappa, lambda, F234A L235A)
heavy 1: not shown
light 1: not shown
heavy 2: B2 heavy 2
light 2: B2 light 2
notes: DuoBody IgG4 PAA, ROR1 arm + CD3B219 arm; also called RR1B84 × CD3B219
B6: RCDB5 (bispecific antibody, human IgG4 S228P, kappa, lambda, F234A L235A)
heavy 1: not shown
light 1: not shown
heavy 2: B2 heavy 2
light 2: B2 light 2
notes: DuoBody IgG4 PAA, ROR1 arm + CD3B219 arm
B7: RCDB6 (bispecific antibody, human IgG4 S228P, kappa, lambda, F234A L235A)
heavy 1: not shown
light 1: not shown
heavy 2: B2 heavy 2
light 2: B2 light 2
notes: as for B6
B8: RCDB15 (bispecific antibody, human IgG4 S228P, kappa, lambda, F234A L235A)
heavy 1: not shown
light 1: not shown
heavy 2: B2 heavy 2
light 2: B2 light 2
notes: DuoBody IgG4 PAA, ROR1 arm + CD3B219 arm; also called RR1B83 × CD3B219
B9: RCDB3 (bispecific antibody, human IgG4 S228P, kappa, lambda, F234A L235A)
heavy 1: not shown
light 1: not shown
heavy 2: B2 heavy 2
light 2: B2 light 2
notes: DuoBody IgG4 PAA, ROR1 arm + CD3B219 arm; also called RR1B65 × CD3B219
B10: RCDB11 (bispecific antibody, human IgG4 S228P, kappa, lambda, F234A L235A)
heavy 1: not shown
light 1: not shown
heavy 2: B2 heavy 2
light 2: B2 light 2
notes: DuoBody IgG4 PAA, ROR1 arm + CD3B219 arm; also called RR1B76 × CD3B219
B11: RCDB17 (bispecific antibody, human IgG4 S228P, kappa, lambda, F234A L235A)
heavy 1: not shown
light 1: not shown
heavy 2: B2 heavy 2
light 2: B2 light 2
notes: DuoBody IgG4 PAA, ROR1 arm + CD3B219 arm; also called RR1B85 × CD3B219
B12: RCDB7 (bispecific antibody, human IgG4 S228P, kappa, lambda, F234A L235A)
heavy 1: not shown
light 1: not shown
heavy 2: B2 heavy 2
light 2: B2 light 2
notes: DuoBody IgG4 PAA, ROR1 arm + CD3B219 arm; also called RR1B70 × CD3B219
B13: RCDB9 (bispecific antibody, human IgG4 S228P, kappa, lambda, F234A L235A)
heavy 1: not shown
light 1: not shown
heavy 2: B2 heavy 2
light 2: B2 light 2
notes: DuoBody IgG4 PAA, ROR1 arm + CD3B219 arm; also called RR1B72 × CD3B219
B14: RCDB18 (bispecific antibody, human IgG4 S228P, kappa, lambda, F234A L235A)
heavy 1: not shown
light 1: not shown
heavy 2: B2 heavy 2
light 2: B2 light 2
notes: DuoBody IgG4 PAA, ROR1 arm + CD3B219 arm; also called RR1B86 × CD3B219
B15: RCDB19 (bispecific antibody, human IgG4 S228P, kappa, lambda, F234A L235A)
heavy 1: not shown
light 1: not shown
heavy 2: B2 heavy 2
light 2: B2 light 2
notes: DuoBody IgG4 PAA, ROR1 arm + CD3B219 arm; also called RR1B88 × CD3B219
B16: RCDB8 (bispecific antibody, human IgG4 S228P, kappa, lambda, F234A L235A)
heavy 1: not shown
light 1: DIQMTQSPSSLSASVGDRVTITCRASQSIDRHLNWYQQKPGKAPKLLIYKASSLQSGVPSRFSGSGSGTDFTLTISSLQPEDFATYYCQQPHTFPLTFGQGTKVEIKRTVAAPSVFIFPPSDEQLKSGTASVVCLLNNFYPREAKVQWKVDNALQSGNSQESVTEQDSKDSTYSLSSTLTLSKADYEKHKVYACEVTHQGLSSPVTKSFNRGEC
heavy 2: B2 heavy 2
light 2: B2 light 2
notes: DuoBody IgG4 PAA, ROR1 arm + CD3B219 arm; also called RR1B71 × CD3B219
B17: RCDB12 (bispecific antibody, human IgG4 S228P, kappa, lambda, F234A L235A)
heavy 1: not shown
light 1: not shown
heavy 2: B2 heavy 2
light 2: B2 light 2
notes: DuoBody IgG4 PAA, ROR1 arm + CD3B219 arm; also called RR1B77 × CD3B219
B18: RCDB5 (bispecific antibody, human IgG4 S228P, kappa, lambda, F234A L235A)
heavy 1: not shown
light 1: not shown
heavy 2: B2 heavy 2
light 2: B2 light 2
notes: also called ROR1×CD3 bispecific antibody
B19: RR1B67 (antibody, human IgG4 S228P, kappa, F234A L235A, V domains shown)
VH: QVQLVQSGAEVKKPGSSVKVSCKASGGTFSTYAIHWVRQAPGQGLEWMGRIIPIEGRAYYAQKFQGRVTITADESTSTAYMELSSLRSEDTAVYYCARGRYSYRYWFDYWGQGTLVTVSS
VL: EIVLTQSPATLSLSPGERATLSCRASQSVSSYLAWYQQKPGQAPRLLIYDASNRATGIPARFSGSGSGTDFTLTISSLEPEDFAVYYCQQRSNWPLTFGQGTKVEIKR
notes: huIgG4 PAA, kappa; also called RRIB67

molecular target: T1, human ROR1 (Receptor Tyrosine Kinase-Like Orphan Receptor 1) on cells (human, UniProt Q01973 30-937); test: detection of control ROR1+ cell lines spiked into fixed whole blood
T1 construct: whole, on cells; endogenous on SKMES-1, MDA-MB231, H358, HCC827 and MCL lines, or on HEK293 cells transfected with human ROR1 (pDR25226); the cell line is named under assay; also called cell-surface ROR1; hu ROR1

Binder	binding result
B1	binds

molecular target: T2, human ROR1 (Receptor Tyrosine Kinase-Like Orphan Receptor 1) on cells (human, UniProt Q01973 30-937); test: flow cytometry, HCC827 cells
T2 construct: whole, on cells; also called hu ROR1

Binder	EC50
B2	1.64 nM
B3	9.14 nM
B4	6.21 nM
B5	10.4 nM
B6	3.74 nM
B7	6.25 nM
B8	6.34 nM
B9	3.77 nM
B10	2.36 nM
B11	4.72 nM
B12	1 nM
B13	16.9 nM
B14	5.07 nM
B15	16.2 nM
B16	10.6 nM
B17	1.25 nM

molecular target: T1, human ROR1 (Receptor Tyrosine …); test: MSD-CAT; 200, 40 or 8 pM antibody equilibrated with serially diluted HEK293 cells overexpressing human ROR1

Binder	IC50 (read off the curve)
B18	~0.4 nM

molecular target: T2, human ROR1 (Receptor Tyrosine …); test: cell-based or functional assay

Binder	Killing EC50
B2	0.539 nM
B3	0.677 nM
B5	2.91 nM
B6	0.454 nM
B7	0.437 nM
B8	1.28 nM
B9	2.48 nM
B10	0.247 nM
B11	5.17 nM
B12	16.9 nM
B13	3.21 nM

molecular target: T1, human ROR1 (Receptor Tyrosine …); test: MSD-CAT; 1000 pM antibody equilibrated with serially diluted HEK293 cells overexpressing human ROR1

Binder	IC50 (read off the curve)
B18	~1 nM

molecular target: T2, human ROR1 (Receptor Tyrosine …); test: MSD-CAT, HEK293 cells expressing human ROR1; apparent KD (bivalent, avidity)

Binder	Kd
B19	0.055 nM

molecular target: T3, human FcγRIIb (human, UniProt P31994 46-217); test: competition AlphaScreen
T3 construct: bought, His-tagged, on Ni2+ Acceptor beads; also called FcγRIIb/c (CD32b/c)
T3 sequence (looked up): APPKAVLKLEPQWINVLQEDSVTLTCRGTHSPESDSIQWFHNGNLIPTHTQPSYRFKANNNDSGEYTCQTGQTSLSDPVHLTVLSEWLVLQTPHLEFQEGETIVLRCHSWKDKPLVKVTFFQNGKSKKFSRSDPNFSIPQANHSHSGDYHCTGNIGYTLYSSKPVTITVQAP

Binder	binding result
B18	binds

molecular target: T4, human FcγRIIIa (CD16a) (human, UniProt P08637 17-208); test: competition AlphaScreen
T4 construct: bought, His-tagged, on Ni2+ Acceptor beads

Binder	binding result
B18	binds

molecular target: T5, human FcγRI (CD64) (human, UniProt P12314 16-288); test: competition AlphaScreen
T5 construct: bought, His-tagged, on Ni2+ Acceptor beads; also called FcγR1

Binder	binding result
B18	binds

molecular target: T6, human FcRn (FCGRT/B2M Heterodimer) (human, UniProt P55899 24-297; P61769 21-119); test: AlphaScreen competition: unlabeled competitor antibody against biotinylated B21M WT IgG1 for His-tagged human FcRn; 1x PBS, 0.05% BSA, 0.01% Tween-20, pH 6.0
T6 construct: bought heterodimer, His-tagged

Binder	binding result
B18	binds

molecular target: T2, human ROR1 (Receptor Tyrosine …); test: MSD-CAT, HEK293 cells expressing human ROR1

Binder	Kd
B2	0.254 nM
B6	0.331 nM
B7	0.648 nM
B10	0.382 nM
B13	2.27 nM
B17	0.236 nM

molecular target: T7, human FcγRIIa (CD32a) (human, UniProt P12318 36-218); test: AlphaScreen competition: unlabeled competitor antibody against biotinylated B21M WT IgG1 for His-tagged human FcγRIIa; 1x PBS, 0.05% BSA, 0.01% Tween-20, pH 7.2
T7 construct: bought, His-tagged, on Ni2+ Acceptor beads
T7 sequence (looked up): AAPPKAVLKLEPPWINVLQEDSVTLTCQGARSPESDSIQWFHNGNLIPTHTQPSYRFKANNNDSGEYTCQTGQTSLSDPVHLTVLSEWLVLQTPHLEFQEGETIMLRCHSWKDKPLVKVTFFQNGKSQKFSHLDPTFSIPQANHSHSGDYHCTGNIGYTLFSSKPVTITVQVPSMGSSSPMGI

Binder	binding result
B18	binds

molecular target: T1, human ROR1 (Receptor Tyrosine …); test: MSD-CAT, cells expressing ROR1

Binder	Kd
B18	~0.3 nM
